# Data taken from patent US20200247855A1, “THERAPY AND DIAGNOSTICS” (OXFORD UNIVERSITY INNOVATION LIMITED, priority 2017, published 2020).
# “Also recorded” adds a separate entry of the source.
# Biological target: T1, CCL8_HUMAN (Homo sapiens, UniProt P80075)
# T1 sequence (P80075 24-99): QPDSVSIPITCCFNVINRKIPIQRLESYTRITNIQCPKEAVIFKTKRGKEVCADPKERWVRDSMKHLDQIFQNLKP
# Experiment: Biolayer interferometry (BLI) binding
# Conditions: 300 nM or 600 nM CCL8
# Description: Table 1. Tick CKBPs described in PCT/GB2017/050563 and [17]. Tick peptide sequences isolated in yeast surface display fluorescent-activated cell sorting (FACS) screens using a labelled chemokine. Identity with Evasin-1, 4 or 3 was calculated using BLAST. Abbreviations: IXORI—Ixodes ricinus, RHISA—Rhipicephalus sanguineus, AMBMA—Amblyomma maculatum, AMBPA—Amblyomma parvum, AMBTR—Amblyomma triste, AMBAM—Amblyomma americanum, AMBCA—Amblyomma cajennense, RHIPU—Rhipicephalus pulchellus. Table 2A-C. Binding characteristics of tick CKBPs previously disclosed (PCT/GB2017/050563 and [17]). All members of the human chemokine family[164] are listed in column 1. Binding to human chemokines was determined for 14 tick CKBPs using biolayer interferometry (BLI) with calculated Kd shown as Molar (Moles/Litre). Binding data for 17 other novel tick CKBPs was assayed using yeast surface display[17,166],with positive binding results shown as “YES”. For biolayer interferometry, His-tagged purified tick CKBP was bound to a Ni-NINTA sensor on an OctetRed® 384 system, and then binding to each chemokine listed (with the exception of CCL25, CCL26, CXCL16, CXCL17, CXCL4L1, XCL2) was assayed in a cross-binding screen at a chemokine concentration of 300 nM as described. For those chemokines showing binding to a tick CKBP in the cross-binding screen, binding assays were repeated using different doses of chemokine. Association, equilibrium and dissociation data were analysed using Octet software to create corresponding fitted curves, and used to calculate Kd. For yeast surface display, (YSD) background fluorescence was controlled for by using either an empty vector or by omitting the chemokine (i.e. using streptavidin-Alexa647 alone). An arbitrary threshold of >3 fold over background mean fluorescence intensity was chosen to describe confirmed re-tests. Where binding was detected data are indicated as “YES”. […] For yeast surface display data, empty cells represent chemokines that were not tested. Binding data published in relation to previously described tick CKBPs (Evasins-1, 4 and 3) is also shown for comparison in each of FIGS. 2A-C, with the relevant data obtained from publications: [20-22,32]. Table 3: Neutralisation of human chemokines by tick CKBPs previously disclosed (PCT/GB2017/050563 and [17]). Neutralising activity was determined using a quantitative THP1 cell migration assay in a 96-well Boyden chamber with chemokine in the bottom chamber as described. Cells migrating through to the bottom chamber at 4 hours were counted using flow cytometry in a 96 well plate format. IC50 for neutralisation was determined at the chemokine EC80 dose as determined using a range of tick CKBP concentrations. Data was analysed using GraphPad Prism to determine IC50, which is shown as Molar (Moles/Litre). Empty cells represent experiments not done. Table 4—Other previously described tick CKBPs. Tick CKBPs that were also described in PCT/GB2017/050563 and Singh et al. are indicated in “Notes”. Table 5.—Novel tick CKBPs of the invention. Table 6. […] The peptide sequence prefix indicates the identity, and suffix indicate the tick species as follows: AMBCA, Amblyomma cajennense and IXORI, Ixodes ricinus. […] Certain tick peptides e.g. P1074_IXORI were recovered from screens performed with more than one chemokine. Individual yeast clones recovered from the library were re-tested using a FACS (fluorescence activated cell sorting), experiment. The binding of the peptide to the chemokine was assayed by measuring the percent (%), of yeast cells expressing the given peptide that exceeded a background threshold set by measuring the fluorescence of the yeast library pool treated with streptavidin-[…] alone. When more than one independent yeast clone was isolated for a given peptide-chemokine combination, the mean percent shift was calculated and reported in column 3. […]
row,Molecule,CCL8 binding (bound or not)
1,"EVA1(P67222-32): hybrid protein: P672 (E22-F32) region swapped into the corresponding segment of EVA1_RHISA (protein, EVA1 containing P672 E22-E32, hybrid protein: P672 (E22-F32) region swapped into the corresponding segment of EVA1_RHISA) EDDEDYEDFFKPVTCYFLVAENKTGYPTIVACKQDCNGTTETAPNGTRCFSIGDEGLRRMTANLPYDCPLGQCSNGDCIPKETYEVCYRRNWRDKKN",bound CCL8
2,"SEQ ID NO: 82: substituted hybrid with greater extent of P672_RHIPU sequence in Evasin-1 (protein, tick CKBP sequence) VCEVSEQEGVGEDNATEDEDYEDFFKPVTCYFANSTVGPLRPPNCTVVCTNNTAWWNDTKSDGGHCYSEYRPEKRTHSREIYNCTIGVCGNGDCIPKETYEVCYRRNWRDEKN",having a CCL8-binding function
3,"SEQ ID NO: 83: substituted hybrid with greater extent of P672_RHIPU sequence in Evasin-1 (protein, tick CKBP sequence) VCEVSEQEGVGEDNATEDEDYEDFFKPVTCYFANSTVGPLRPPNCTVVCTNNTAWWNDTKSDGGHCFSIGDEGLRRMTANLPYDCPLGQCSNGDCIPKETYEVCYRRNWRDEKN",having a CCL8-binding function
4,Evasin-1 peptide encoded by EZ406190.1: Evasin-1 peptide variant K92E encoded by nucleotide sequence EZ406190.1 (protein) EDDEDYGDLGGCPFLVAENKTGYPTIVACKQDCNGTTETAPNGTRCFSIGDEGLRRMTANLPYDCPLGQCSNGDCIPKETYEVCYRRNWRDEKN,does not bind CCL8

# Tested on: chemokines
# Experiment: not given
# Conditions: list of chemokines bound, from the literature [18,20-22]; cited from earlier work
row,Molecule,Previously described chemokine binding
1,"IHO-01: previously described tick CKBP, Ixodes holocyclus (protein, listed as Ixodes holocyclus) AFVSSSTEVEIGSTSEHNSNETDEYGYDYNADGLGCPVVGIGGLDNKTWHPNCTNECPNSTKLFLLENGTP","CCL11, CCL24, and CCL26, CCL2, and CCL8"
2,"ACA-02: previously described tick CKBP, Amblyomma cajennense (protein, Amblyomma cajennense) GIEGSGNLATSHEMDDCLDDNSTCVIQTLNTTGEPRPVGCVLKCKNSTQHLANGTECLGIPELAGVRMQYNVSYTCAVGLCNAGVCERTGLWIGCWQNEPPPNSTDVTTTAPTTTTASTSSV","CCL11, CCL24,; also recorded: CCL26"
3,"AMA-01: previously described tick CKBP, Amblyomma maculatum (protein, listed as Amblyomma maculatum) ECEESDTSESTECSTEDYSNRIRDNETCFIGALNTTGHPVPVGCTLDCGNSTRYLPNGTECIDLTQQASDVMQSDVPYYCPIGLCANGICKRSGLELNCWHDMPPPVSTDTAIENPTTSISSSAKL","CCL11, CCL24,; also recorded: CCL26, CCL2,; also recorded: CCL8, CCL7"
4,"IRI-01: previously described tick CKBP, Ixodes ricinus (protein, listed as Ixodes ricinus) GPAPSAKENEKAPLCLPQESLINNRDPNGCNYQLLPYFTEDGMGGGFLAIDCSKSCPEGTHETVVDGNS","CCL11, CCL24,; also recorded: CCL26, CCL2,; also recorded: CCL8, CCL7"
5,"ATR-02: previously described tick CKBP, Amblyomma triste (protein, Amblyomma triste) GNEVSDPPLTDEDCEYYDPSEDNITCSIRSLNTTGRPIPVGCLATCENSTRRLHNGTECLGISDQVANRMQGNVTYTCPVGLCYRGVCQRNGLGIDCWHNTPPPNSTNVTTNASTTPLPTSSRDL","CCL11, CCL24,; also recorded: CCL26, CCL2,; also recorded: CCL8, CCL7"
